# Experimental data from article PMC7769003.
# Target: Recombinant VEEV p62-E1 protein (TrD strain) (Venezuelan equine encephalitis virus (TrD strain))
# Experiment: SPR
substance,measurement,value
HRV-cleaved monovalent Ldlrad3-D1 (from UniProt A2AR95 18-70) (domain or fragment),Kd,209 nM
